Source: patent US20240269278A1 (NANJING SHUNXIN PHARMACEUTICALS CO LTD OF CHIATAI TIANQING …, published 2024)
Positions count from the first letter of the chain named. In names and notes the source's numbering stands.

B1: hz16E5-3.3 (antibody, human IgG4 S228P, kappa)
heavy: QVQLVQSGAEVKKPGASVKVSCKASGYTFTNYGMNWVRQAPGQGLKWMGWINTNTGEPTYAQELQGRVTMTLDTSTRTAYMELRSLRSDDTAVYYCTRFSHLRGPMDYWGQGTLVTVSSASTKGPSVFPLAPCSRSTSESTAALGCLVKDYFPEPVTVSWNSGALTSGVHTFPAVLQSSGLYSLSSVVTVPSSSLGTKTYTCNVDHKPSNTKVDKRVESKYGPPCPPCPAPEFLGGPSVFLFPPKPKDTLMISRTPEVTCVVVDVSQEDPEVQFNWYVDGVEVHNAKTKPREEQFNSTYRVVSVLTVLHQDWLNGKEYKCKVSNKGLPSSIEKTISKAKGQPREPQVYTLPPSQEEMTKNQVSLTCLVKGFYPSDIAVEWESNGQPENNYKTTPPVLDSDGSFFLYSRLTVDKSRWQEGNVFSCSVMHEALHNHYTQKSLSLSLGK
light: DAQMTQSPSSLSASVGDRVTITCRSSQSLVHSNGYTYLHWYQQKPGKAPKLLIYKVSNRFSGVPSRFSGSGSGTDFTLTISSLQPEDFATYYCSQSTHVPPTFGQGTKLEIKRTVAAPSVFIFPPSDEQLKSGTASVVCLLNNFYPREAKVQWKVDNALQSGNSQESVTEQDSKDSTYSLSSTLTLSKADYEKHKVYACEVTHQGLSSPVTKSFNRGEC
notes: Humanized 16E5, full-length heavy and light chains, made in CHO cells
B2: hz14A9-2.3 (antibody, human IgG4 S228P, kappa, V domains shown)
VH: QVQLVQSGAEVKKPGASVKVSCKVSGFNIEDDYIEWVRQAPGQGLEWMGRIDPANDKTKYAQKFQGRVTMTGDTSTNTVYMELSSLRSEDTAVYYCARPGLRRYYSMDYWGQGTLVTVSS
VL: DIQMTQSPSSLSASVGDRVTITCKASENVVSYVSWYQQKPGKAPKLLIYGASNRYTGVPSRFIGSGSSTDFTLTISSLQPEDFATYYCGQSYSYPLTFGQGTKLEIKR
B3: hz14A9-2.4 (antibody, human IgG4 S228P, kappa, V domains shown)
VH: B2 VH with A97T
VL: B2 VL
B4: Xi3F10 (antibody, human IgG4 S228P, kappa, V domains shown)
VH: EVQLQQSVAELMKPGASVKIYCKATGYTFSRYWIEWVKQRPGHGLEWIGEFIPGSDTTNFNEKFKGKATFTAEISSNTAYMQLSSLTSEDSAVYFCARGGLRRMDYWGQGTSVTVSS
VL: DIVMTQTPAIMSASPGEKVTMTCRASSSVSSTYLHWYQQKSGASPKLWIYTTSTLASGVPARFSGSGSGTSYSLTISSVEAEDAATYYCQQFSDSTWTFGGGTKLEIKR
notes: Chimeric: mouse VH on human IgG4 (S228P, EU) constant region, mouse VL on human kappa constant region; made in CHO cells; also called chimeric version of 3F10
B5: Xi16E5 (antibody, human IgG4 S228P, kappa, V domains shown)
VH: EVQLQQSGPELKKPGETVKISCKASGYTFTNYGMNWVKQVPGKGLKWMGWINTNTGEPTYAEEFKGRFAFSLETSARTAFLQINNLKNEDTATYFCTRFSHLRGPMDYWGQGASVTVSS
VL: DAVMTQTPLSLPVSLGDQASISCRSSQSLVHSNGYTYLHWYLQKPGQSPKLLIYKVSNRFSGVPDRFSGSGSGTDFTLKISRLEAEDLGVYFCSQSTHVPPTFGGGTKLEIKR
notes: Chimeric: mouse VH on human IgG4 (S228P, EU) constant region, mouse VL on human kappa constant region; made in CHO cells; also called chimeric version of 16E5

Key:
[1] = biological target: T1, cynomolgus/rhesus macaque CD47 protein, His Tag (ACRObiosystems, Cat. No. CD7-C52H1) (cynomolgus monkey, UniProt A0A2K5X523 19-139); experiment: Biacore SPR, antibody captured on CM5 chip, CD47-His protein, 25 C
T1 construct: Bought protein; also called Cynomolgus monkey CD47 protein; not shown: His tag
Method: (§1) The equilibrium dissociation constants KD (in unit M) were obtained by measuring the binding kinetics of the human CD47 protein (human CD47 protein, His Tag; ACRObiosystems, Cat. No. CD7-H5227) and cynomolgus monkey CD47 protein (cynomolgus/rhesus macaque CD47 protein, His Tag; ACRObiosystems, Cat. No. CD7-C52H1) to anti-CD47 antibodies (chimeric or humanized) using Biacore. The Biacore analysis was performed at 25° C. and data were recorded at a rate of 1 Hz.
(§2) At the beginning of each cycle, the diluted test antibody (1.5 μg/mL) was injected onto the experimental flowcell and maintained for 1 min to be captured.

[2] = biological target: T2, human CD47 protein, His Tag (ACRObiosystems, Cat. No. CD7-H5227) (human, UniProt Q08722 19-139); experiment: as above
T2 construct: Bought protein; also called hCD47-His Tag protein; not shown: His tag
Method: as §1, §2

T2 sequence (Q08722 19-139 limits assumed): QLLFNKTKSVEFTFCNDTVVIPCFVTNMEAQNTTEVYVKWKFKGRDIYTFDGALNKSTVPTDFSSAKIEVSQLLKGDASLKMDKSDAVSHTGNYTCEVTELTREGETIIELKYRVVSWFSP

Row | Binder | Kd [1] [nM] | Kd [2] [nM]
1 | B1 | 1.87 | 7.13
2 | B2 | 3.07 | 0.204
3 | B3 | 2 | 8.55
4 | B4 | 1.04 | 0.767
5 | B5 | 2.92 | 9.06
